No end group written: not given here.
T1: purified His-tagged septin 7 (full length) (UniProt Q16181 1-437)
T1 sequence: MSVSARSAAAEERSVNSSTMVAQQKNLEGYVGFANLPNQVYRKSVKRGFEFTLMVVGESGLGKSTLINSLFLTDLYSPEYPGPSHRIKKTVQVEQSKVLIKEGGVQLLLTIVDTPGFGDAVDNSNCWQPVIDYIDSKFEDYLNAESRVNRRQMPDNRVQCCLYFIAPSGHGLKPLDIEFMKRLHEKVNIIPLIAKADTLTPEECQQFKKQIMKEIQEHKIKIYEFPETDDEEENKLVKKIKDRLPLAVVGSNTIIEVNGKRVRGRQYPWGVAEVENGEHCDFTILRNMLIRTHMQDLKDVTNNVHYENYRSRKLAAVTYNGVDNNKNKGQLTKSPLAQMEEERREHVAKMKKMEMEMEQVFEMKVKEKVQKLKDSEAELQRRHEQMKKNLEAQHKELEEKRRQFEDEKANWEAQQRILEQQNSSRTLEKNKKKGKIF

T2: SEPT7-ΔCC (septin 7 residues 1-331, lacking the coiled coil domain), His-tagged (UniProt Q16181 1-331)
T2 sequence: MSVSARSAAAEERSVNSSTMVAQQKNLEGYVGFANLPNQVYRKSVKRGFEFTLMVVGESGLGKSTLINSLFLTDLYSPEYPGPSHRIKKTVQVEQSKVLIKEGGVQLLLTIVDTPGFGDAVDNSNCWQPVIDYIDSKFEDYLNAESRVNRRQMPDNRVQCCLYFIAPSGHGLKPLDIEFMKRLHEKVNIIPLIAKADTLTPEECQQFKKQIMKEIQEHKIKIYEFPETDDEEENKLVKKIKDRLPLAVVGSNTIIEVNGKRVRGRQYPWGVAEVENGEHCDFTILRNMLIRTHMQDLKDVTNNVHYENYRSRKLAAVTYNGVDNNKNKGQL


Tests used:
[1] = target: T1, purified His-tagged septin 7 (full …); experiment: BLI
[2] = target: T2, SEPT7-ΔCC (septin 7 residues 1-331, …); experiment: BLI
[3] = target: T1, purified His-tagged septin 7 (full …); experiment: proteoliposome coflotation

| Binder | binding result [1] | binding result [2] | binding result [3] |
| --- | --- | --- | --- |
| MEHLERCEWLLRGTLVRAAVRRY (also: biotinylated, site not given here) [biotinylated FIT2 N-terminal loop peptide (NTL, residues 1-23)] | binds | binds |  |
| FIT2-Strep-His8-GFP fusion protein, reconstituted into proteoliposomes (natural protein) MEHLERCEWLLRGTLVRAAVRRYLPWALVASMLAGSLLKELSPLPESYLSNKRNVLNVYFVKVAWAWTFCLLLPFIALTNYHLTGKAGLVLRRLSTLLVGTAIWYICTSIFSNIEHYTGSCYQSPALEGVRKEHQSKQQCHQEGGFWHGFDISGHSFLLTFCALMIVEEMSVLHEVKTDRSHCLHTAITTLVVALGILTFIWVLMFLCTAVYFHNLSQKVFGTLFGLLSWYGTYGFWYPKAFSPGLPPQSCSLNLKQDSYKK |  |  | binds |

From PMC8056755 (The Journal of Cell Biology, 2021)
